Data published in PMC9242855, “Mechanism of replication origin melting nucleated by CMG helicase assembly” (Nature, 2022).

How the values were obtained:
Assay in all cases: cryo-EM structure; dCMGE assembled from purified yeast proteins on nucleosome-flanked (chromatinized) ARS1 origin DNA with 5 mM ATP; undiluted CMG assembly reaction frozen on grids; dimer map at limited resolution, symmetry-expanded CMGE at 3.5 Å
[1] = biological target: T1, Mcm3 (S. cerevisiae, UniProt P24279 1-971); settings: both partners purified
T1 construct: Mcm3, subunit of the yeast MCM (Mcm2–7) helicase; Subunit seen within the dCMGE structure; source: purified within Mcm2–7–Cdt1 on the basis of previously established protocols

[2] = biological target: T2, Mcm4 (S. cerevisiae, UniProt P30665 1-933); settings: both partners purified
T2 construct: Mcm4, subunit of the yeast MCM (Mcm2–7) helicase; Subunit seen within the dCMGE structure; source: purified within Mcm2–7–Cdt1 on the basis of previously established protocols
T2 sequence: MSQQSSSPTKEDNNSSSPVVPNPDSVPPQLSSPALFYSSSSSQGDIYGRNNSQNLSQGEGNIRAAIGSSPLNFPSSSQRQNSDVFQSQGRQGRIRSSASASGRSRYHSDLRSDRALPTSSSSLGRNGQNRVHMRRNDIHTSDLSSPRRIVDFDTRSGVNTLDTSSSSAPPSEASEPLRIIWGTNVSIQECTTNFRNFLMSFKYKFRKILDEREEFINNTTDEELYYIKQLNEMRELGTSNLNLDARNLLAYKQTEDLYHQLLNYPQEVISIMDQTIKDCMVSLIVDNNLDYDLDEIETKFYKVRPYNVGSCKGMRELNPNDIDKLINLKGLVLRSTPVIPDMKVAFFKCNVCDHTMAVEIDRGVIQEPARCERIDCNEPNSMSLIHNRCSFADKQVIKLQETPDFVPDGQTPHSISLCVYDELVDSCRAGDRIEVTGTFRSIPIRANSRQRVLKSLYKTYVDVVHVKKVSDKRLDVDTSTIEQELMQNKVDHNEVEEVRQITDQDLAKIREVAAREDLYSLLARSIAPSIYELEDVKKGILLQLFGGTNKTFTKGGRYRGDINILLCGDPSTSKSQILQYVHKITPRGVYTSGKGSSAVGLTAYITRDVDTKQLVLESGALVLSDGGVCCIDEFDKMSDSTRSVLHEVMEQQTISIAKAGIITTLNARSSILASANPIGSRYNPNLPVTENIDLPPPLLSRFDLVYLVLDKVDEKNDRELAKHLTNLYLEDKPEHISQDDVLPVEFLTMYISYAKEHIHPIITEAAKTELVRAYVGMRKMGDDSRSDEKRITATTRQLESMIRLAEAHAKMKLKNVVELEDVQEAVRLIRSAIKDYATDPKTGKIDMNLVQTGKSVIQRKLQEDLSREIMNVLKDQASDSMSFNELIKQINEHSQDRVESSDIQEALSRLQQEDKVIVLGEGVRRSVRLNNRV

[3] = biological target: the molecule itself

T1 sequence (P24279 whole entry): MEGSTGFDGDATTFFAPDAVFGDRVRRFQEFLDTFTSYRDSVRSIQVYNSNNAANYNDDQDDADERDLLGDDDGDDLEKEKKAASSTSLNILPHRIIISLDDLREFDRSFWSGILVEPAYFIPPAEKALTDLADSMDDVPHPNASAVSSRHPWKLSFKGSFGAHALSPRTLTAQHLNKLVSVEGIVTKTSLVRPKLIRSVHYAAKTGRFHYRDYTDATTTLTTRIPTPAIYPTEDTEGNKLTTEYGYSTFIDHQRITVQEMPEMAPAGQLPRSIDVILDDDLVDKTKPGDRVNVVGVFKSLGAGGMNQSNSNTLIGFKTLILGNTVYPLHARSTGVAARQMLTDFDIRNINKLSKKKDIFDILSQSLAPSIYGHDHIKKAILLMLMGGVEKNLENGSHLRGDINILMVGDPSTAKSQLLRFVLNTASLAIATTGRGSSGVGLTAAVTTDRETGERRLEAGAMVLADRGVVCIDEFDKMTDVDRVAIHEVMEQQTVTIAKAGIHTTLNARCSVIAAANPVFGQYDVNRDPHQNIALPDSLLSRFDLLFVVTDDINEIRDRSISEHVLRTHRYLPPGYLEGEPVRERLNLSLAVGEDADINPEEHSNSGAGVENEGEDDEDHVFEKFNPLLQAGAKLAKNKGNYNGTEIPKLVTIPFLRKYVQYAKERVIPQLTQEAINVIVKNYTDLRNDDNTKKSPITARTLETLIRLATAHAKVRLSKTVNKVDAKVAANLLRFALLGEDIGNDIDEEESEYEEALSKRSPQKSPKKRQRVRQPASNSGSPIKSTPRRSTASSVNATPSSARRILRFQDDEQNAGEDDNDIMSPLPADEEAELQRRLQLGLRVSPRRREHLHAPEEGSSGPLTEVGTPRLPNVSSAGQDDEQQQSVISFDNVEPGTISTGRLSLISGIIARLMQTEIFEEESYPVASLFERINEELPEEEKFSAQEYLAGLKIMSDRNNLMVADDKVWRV

B1: Mcm7 (natural protein, S. cerevisiae)
chain: MSAALPSIQLPVDYNNLFNEITDFLVTFKQDTLSSDATRNENEDENLDAENIEQHLLEKGPKYMAMLQKVANRELNSVIIDLDDILQYQNEKFLQGTQADDLVSAIQQNANHFTELFCRAIDNNMPLPTKEIDYKDDVLDVILNQRRLRNERMLSDRTNEIRSENLMDTTMDPPSSMNDALREVVEDETELFPPNLTRRYFLYFKPLSQNCARRYRKKAISSKPLSVRQIKGDFLGQLITVRGIITRVSDVKPAVEVIAYTCDQCGYEVFQEVNSRTFTPLSECTSEECSQNQTKGQLFMSTRASKFSAFQECKIQELSQQVPVGHIPRSLNIHVNGTLVRSLSPGDIVDVTGIFLPAPYTGFKALKAGLLTETYLEAQFVRQHKKKFASFSLTSDVEERVMELITSGDVYNRLAKSIAPEIYGNLDVKKALLLLLVGGVDKRVGDGMKIRGDINVCLMGDPGVAKSQLLKAICKISPRGVYTTGKGSSGVGLTAAVMKDPVTDEMILEGGALVLADNGICCIDEFDKMDESDRTAIHEVMEQQTISISKAGINTTLNARTSILAAANPLYGRYNPRLSPLDNINLPAALLSRFDILFLMLDIPSRDDDEKLAEHVTYVHMHNKQPDLDFTPVEPSKMREYIAYAKTKRPVMSEAVNDYVVQAYIRLRQDSKREMDSKFSFGQATPRTLLGIIRLSQALAKLRLADMVDIDDVEEALRLVRVSKESLYQETNKSKEDESPTTKIFTIIKKMLQETGKNTLSYENIVKTVRLRGFTMLQLSNCIQEYSYLNVWHLINEGNTLKFVDDGTMDTDQEDSLVSTPKLAPQTTASANVSAQDSDIDLQDA
notes: Mcm7, subunit of the yeast MCM (Mcm2–7) helicase; Subunit seen within the dCMGE structure; source: purified within Mcm2–7–Cdt1 on the basis of previously established protocols
binding result [1]: binds
binding result [2]: binds

B2: Mcm6 (natural protein, S. cerevisiae)
chain: MSSPFPADTPSSNRPSNSSPPPSSIGAGFGSSSGLDSQIGSRLHFPSSSQPHVSNSQTGPFVNDSTQFSSQRLQTDGSATNDMEGNEPARSFKSRALNHVKKVDDVTGEKVREAFEQFLEDFSVQSTDTGEVEKVYRAQIEFMKIYDLNTIYIDYQHLSMRENGALAMAISEQYYRFLPFLQKGLRRVVRKYAPELLNTSDSLKRSEGDEGQADEDEQQDDDMNGSSLPRDSGSSAAPGNGTSAMATRSITTSTSPEQTERVFQISFFNLPTVHRIRDIRSEKIGSLLSISGTVTRTSEVRPELYKASFTCDMCRAIVDNVEQSFKYTEPTFCPNPSCENRAFWTLNVTRSRFLDWQKVRIQENANEIPTGSMPRTLDVILRGDSVERAKPGDRCKFTGVEIVVPDVTQLGLPGVKPSSTLDTRGISKTTEGLNSGVTGLRSLGVRDLTYKISFLACHVISIGSNIGASSPDANSNNRETELQMAANLQANNVYQDNERDQEVFLNSLSSDEINELKEMVKDEHIYDKLVRSIAPAVFGHEAVKKGILLQMLGGVHKSTVEGIKLRGDINICVVGDPSTSKSQFLKYVVGFAPRSVYTSGKASSAAGLTAAVVRDEEGGDYTIEAGALMLADNGICCIDEFDKMDISDQVAIHEAMEQQTISIAKAGIHATLNARTSILAAANPVGGRYNRKLSLRGNLNMTAPIMSRFDLFFVILDDCNEKIDTELASHIVDLHMKRDEAIEPPFSAEQLRRYIKYARTFKPILTKEARSYLVEKYKELRKDDAQGFSRSSYRITVRQLESMIRLSEAIARANCVDEITPSFIAEAYDLLRQSIIRVDVDDVEMDEEFDNIESQSHAASGNNDDNDDGTGSGVITSEPPADIEEGQSEATARPGTSEKKKTTVTYDKYVSMMNMIVRKIAEVDREGAEELTAVDIVDWYLLQKENDLGSLAEYWEERRLAFKVIKRLVKDRILMEIHGTRHNLRDLENEENENNKTVYVIHPNCEVLDQLEPQDSS
notes: Mcm6, subunit of the yeast MCM (Mcm2–7) helicase; Subunit seen within the dCMGE structure; source: purified within Mcm2–7–Cdt1 on the basis of previously established protocols
binding result [3]: binds
